Measured values from patent US20060052292A1 (MAXYGEN APS MAXYGEN, published 2006).

Molecular target: the molecule itself
Test: native Tris-Glycine gel, self-association (homotrimer) of apM1(82-244)
Experimental: After storage at −20° C. for several weeks the material was verified to have a heterogeneous appearance on a coomassie stained Novex 8-16% Tris-Glycine gel (Invitrogen; Cat. No. EC60452) run under native conditions (FIG. 4, lane 1). […] (In FIG. 4, M is SeeBlue Plus2).

B1: apM1(82-244), human adiponectin fragment expressed in CHO K1 cells (other)
chain: ETGVPGAEGPRGFPGIQGRKGEPGEGAYVYRSAFSVGLETYVTIPNMPIRFTKIFYNQQNHYDGSTGKFHCNIPGLYYFAYHITVYMKDVKVSLFKKDKAMLFTYDQYQENNVDQASGSVLLHLEVGDQVWLQVYGEGERNGLYADNDNDSTFTGFLLYHDTN
modifications: partial hydroxy-Pro at 86, 95 and 104; partial glyco-hydroxy-Lys at 101 (about 60%)
notes: Forms a calcium-stabilised homotrimer on native gels; On the Western blot the denatured monomer is detected
B1: binds.
